Here are results for 97 substances from the supplement of paper PMC12042874.

± gives the uncertainty stated by the source.

A short description of this data set: amyloid nucleation score (Sup35N fusion, yeast selection) (log enrichment); library NNK3; higher = more nucleation; inactive = no reads after selection. In a few lines: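 Nucleation score: DiMSum log enrichment of output over input reads, centred on the mode score of non-aggregating sequences. Only sequences with at least 100 input reads were kept. Reads came from Illumina sequencing of plasmid inserts before and after 7 days of growth at 30°C without adenine and uracil, in psi-negative yeast expressing Sup35N fused to peptides of 20 random codons after 24 hours of induction with 100 μM copper sulfate.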
In the case of YMFVLGYRMNCW, the amyloid nucleation score was 1.01 ± 0.17.
Under ITFVRGWVFDLQFNATE stands 0.55 ± 0.37; under YEAFADRTPLVFAHSWSMLK, “inactive”.
To LYICTIVYYGQSNRYMFAGQ belongs “inactive”; to NCFMRLMVFAKRVIGCLQPP, 0.15 ± 0.43.
To AGSILYGHYLDACGRHSRVI belongs “inactive”.
As for CQYFLSWRASVC, the amyloid nucleation score result was “inactive”.
To SNSMPSGNSRMVCCRDPSFP belongs “inactive”.
FPGRQIYYILVLAQAFASGF: the amyloid nucleation score result was “inactive”.
With YDGRIGRYSSYIKKCF, the amyloid nucleation score result was “inactive”.
Under VGQTCFTIMMVV stands “inactive”; under LWKRCRNNEAFVLMVGRRQA, “inactive”.
Consider DNAVVEEYIIEVAKSFWTDG, for which the amyloid nucleation score result is “inactive”.
To DVNHVMNMNIGSNRN belongs “inactive”; to RVTCLFFNPRRTTNYSSSVG, 1.1 ± 0.11.
As for YFNLSEYGLCCYRGFRVYKS, the amyloid nucleation score is 1.23 ± 0.18.
To CSYILVFSNSFFFHAHSTWV belongs “inactive”.
Turning to YLITHV, the amyloid nucleation score result is “inactive”.
WVHCSPGDRSFTLGTPSFHK: the amyloid nucleation score result is “inactive”.
As for HVTPRKN, the amyloid nucleation score result was “inactive”.
Under GELKFLVLNRFE stands “inactive”; under NRGLWRM, “inactive”; under YMDRFDK, “inactive”.
To TKASKMTKQIF belongs “inactive”; to PTKDVMVGSK, “inactive”.
In turn, DFDFQIYC had an amyloid nucleation score of 0.507 ± 0.25.
To RFVGVATTSFLTVTFGLVCE belongs “inactive”; to IFVFLHLHLIWFYSSSWLMD, “inactive”; to KGLVYSELNYYLLSWY, “inactive”.
For the substance LEMGSGSHFSGDSWAHPLRG, the amyloid nucleation score entry is “inactive”.
To LRGAVVVSEKTRVTTQCIAR belongs “inactive”.
YCQIK: the amyloid nucleation score result was “inactive”.
Under VQLSMPGFGDWCRIRWVTAG stands “inactive”.
For the substance KDIFYVAGDR, the amyloid nucleation score entry is “inactive”.
To LFSTNNYNQLWGMVGFLGFG belongs “inactive”; to AVVARGGVLVGTLCFLFWLS, “inactive”.
For the substance SPPKAAKCICAISSWSLWWT, the amyloid nucleation score entry was “inactive”.
In the case of VVKNTW, the amyloid nucleation score entry is “inactive”.
As for AHRRKLKWDNGHCNLRTKFR, the amyloid nucleation score entry is “inactive”.
To NCKMWRYKVESNCPGMICRC belongs “inactive”; to CNCRKRLVWSFGYMNISMYL, “inactive”; to GTIHLFYVFLLS, 0.205 ± 0.38.
Turning to HLSRCYCYNDVSLARNFNDR, the amyloid nucleation score result is “inactive”.
To QLGFWKELSSSHS belongs “inactive”; to HYVPVASDVRGMIYFRSFEW, “inactive”; to RHDVSSGSYGGRSGAGSPAQ, “inactive”.
To WFWRVNIMKTIGLSHSRHEG belongs “inactive”; to RSPYNFCKALRMGWVTNKIS, “inactive”; to SPRVSMYMSSQKGLEPWESV, “inactive”.
Take CPVRGPKVVIQCMMLSILTV: the amyloid nucleation score result was “inactive”.
For the substance SLRWLISESAMRVKTMWRGG, the amyloid nucleation score result was “inactive”.
For QLLLKT, the amyloid nucleation score entry was “inactive”.
Under TRAPVECNLCIGIEKDEVVR stands “inactive”; under TPMIVPLMNSQVVYTLFTTK, 2.11 ± 0.076; under CEGRHKFF, “inactive”.
Turning to RICRYGAIDLMGVP, the amyloid nucleation score result was “inactive”.
To VDINRFMEPLSCVRCCDDSC belongs “inactive”.
To SKTVDNGKMRKDWLGRQPWK belongs -0.362 ± 0.51; to ASDKMELILLLTSYRSYYDC, “inactive”.
To VPGCA belongs -0.075 ± 1.1; to SYLKRGKSVAIQLTYGS, 0.405 ± 0.67; to IYPLV, “inactive”.
Consider LIQDFTSSGRI, for which the amyloid nucleation score entry was “inactive”.
To KHRWVQLLWCWYFTGSQYRI belongs “inactive”.
To FILMLVTKLRAHLRGEIRGE belongs “inactive”.
As for QLCLKGSPIVVVRCLRHNKI, the amyloid nucleation score result was “inactive”.
To WFMREAWIWSAPFWPWIRNT belongs “inactive”; to MDRYNEPLSNWTKSSEIR, “inactive”.
To SNPHDDSHDVILVFLVLGRC belongs “inactive”; to FWGSTWSLRVL, “inactive”.
NELGEIAYGCGFRVVCRCMR: the amyloid nucleation score result was “inactive”.
With EIWSDKCSTRSMLHPAYIMY, the amyloid nucleation score result is “inactive”.
Consider CVGYMGLGALEYIVNAHGGI, for which the amyloid nucleation score result is “inactive”.
To ANVLFEVSACLAKGIVKVRR belongs “inactive”.
Under PIILKIPV stands “inactive”.
To YKSRGMVYDYFGKMIYHLSG belongs 0.63 ± 0.13; to DLKWNVRHGCISKTARGFVT, “inactive”.
As for TWFYQ, the amyloid nucleation score result was “inactive”.
As for MIRLNNRARRNLLRLRVDRQ, the amyloid nucleation score entry is “inactive”.
As to DVITIEYVCF, the amyloid nucleation score entry is “inactive”.
SAYWCIPIPNITIWFNFFLL had an amyloid nucleation score of 1.47 ± 0.11.
Under SYAANGVWRSYDLCYQCQKV stands -0.712 ± 1.1; under TYQSVDTVLSSVT, “inactive”; under HYRVLPPAVVRRRVMLL, “inactive”.
To APTRSV belongs “inactive”.
Under MHFRWQTFYSDN stands “inactive”.
For EYYLDMDLMFMMG, the amyloid nucleation score result was “inactive”.
As to DNARCSLHFYNSCWISVWKY, the amyloid nucleation score result is “inactive”.
As to PHNGHKNSWCTVPGSSCRSV, the amyloid nucleation score came out at 1.14 ± 0.18.
GQFCCVCARIKLCRYSFNCY came in with an amyloid nucleation score of 2.45 ± 0.082.
Regarding SENGECKATVLCMLSSPVVC, the amyloid nucleation score entry is “inactive”.
To SMKVEEIICGFAVVYIDTMY belongs 0.256 ± 0.28; to LRVCTELRMVLDISYNVGNF, 0.68 ± 0.18; to NFVRRHWRWRGMSFSLVNSY, “inactive”.
As to QYNPLDCCNVRLKLYGPLMV, the amyloid nucleation score entry is “inactive”.
Take KDVRVWRLFRLD: the amyloid nucleation score entry is “inactive”.
Under CWSRMNSVDAIYK stands “inactive”.
